# From patent US20130323819A1 (HERA PHARMACEUTICALS, published 2013)
# B1: secreted scFv anti-SAI/II (E-tagged) produced by L. paracasei pAF100 (plasmid) or L. paracasei EM182 (chromosomally integrated) (scFv)
# scFv: AIVEGSAAQPAMDAQVKLQESGPDLVKPGASVKISCKASGYTFTDYNIHWVKQSRGKSLEWIGYIYPYNGNTYYNQKFKNKATLTVDNSSTSAYMELRSLTPEDSAVYYCATYFDYWGQGTTVTVSSGGGGSGGGGSGGGGSDIELTQSPAIMSASPGEKVTITCSASSSVSYMHWFQQKPGTSPKLWLYSTSNLASGVPARFSGSGSGTSYSLTISRMEAEDAATYYCHQRTSYPYTFGGGTKLEIKRAAAAGAPVPYPDPLEPRAA
# notes: Same polypeptide from the plasmid strain and the integrated strain (pEM182 = pEM76 with the expression cassette of pAF100); tested as culture supernatant; also called pEM182
# B2: surface anchored scFv anti-SAI/II (E-tagged) fused to the prtP anchor region, displayed on L. paracasei pAF900 (plasmid) or L. paracasei EM181 (chromosomally … (scFv)
# scFv: AIVEGSAAQPAMDAQVKLQESGPDLVKPGASVKISCKASGYTFTDYNIHWVKQSRGKSLEWIGYIYPYNGNTYYNQKFKNKATLTVDNSSTSAYMELRSLTPEDSAVYYCATYFDYWGQGTTVTVSSGGGGSGGGGSGGGGSDIELTQSPAIMSASPGEKVTITCSASSSVSYMHWFQQKPGTSPKLWLYSTSNLASGVPARFSGSGSGTSYSLTISRMEAEDAATYYCHQRTSYPYTFGGGTKLEIKRAAAAGAPVPYPDPLEPRAAASKKTSLLNQLQSVKAALGTDLGNQTDPSTGKTFMAALDDLVAQAQAGTQTADQLQASLAKVLDAVLAKLAEGIKAATPAEVGNAKDAATGKTWYADIADTLTSGQASADASDKLAHLQALQSLKTKVAAAVEAAKTAGKGDDTSGTSDKGGGQGTPAPAPGDTGKNKGDEGSQPSSGGNIPTKPATTTSTSTDDTTDRNGQHTSGKGALPKTAETTERPAFGFLGVIVVSLMGVLGLKRKQREE
# modifications: On the cells the chain is covalently linked to the cell wall through the prtP anchor (LPXTG-type motif, here LPKTA at residues 478-482).
# notes: Same polypeptide from the plasmid strain and the integrated strain (pEM181 = pEM76 with the expression cassette of pAF900); tested as whole bacterial cells; (precursor, before any processing on anchoring to the cell wall); also called pEM181
# B3: secreted and attached scFv anti-SAI/II (E-tagged) fused to the middle region and C-terminal domain of APF, produced by L. paracasei pAF400 (plasmid) or L. … (scFv)
# scFv: AIVEGSAAQPAMDAQVKLQESGPDLVKPGASVKISCKASGYTFTDYNIHWVKQSRGKSLEWIGYIYPYNGNTYYNQKFKNKATLTVDNSSTSAYMELRSLTPEDSAVYYCATYFDYWGQGTTVTVSSGGGGSGGGGSGGGGSDIELTQSPAIMSASPGEKVTITCSASSSVSYMHWFQQKPGTSPKLWLYSTSNLASGVPARFSGSGSGTSYSLTISRMEAEDAATYYCHQRTSYPYTFGGGTKLEIKRAAAAGAPVPYPDPLEPRAAASEELYHTQAAVTQAPVQHQTQTENTNSAATTTAANNTNTQTTTSTVSGSEASAKEWIAGRESGGSYGASNGQYVGKYQLSASYLNGDYSAANQERVADNYVKGRYGSWTAAKAFWQANGWY
# notes: Same polypeptide from the plasmid strain and the integrated strain (pEM171 = pEM76 with the expression cassette of pAF400); tested as culture supernatant and as whole cells (attached form); also called pEM171
# Key:
# [1] = target: T1, SAI/II antigen (SAI/II adhesion of S. mutans) (Streptococcus mutans, UniProt P23504 39-1532); test: ELISA, SAI/II coated, culture supernatant; integrated strain against plasmid strain (same polypeptide, different amount)
# T1 construct: Coated on ELISA plates at 1 ug/ml in PBS
# T1 sequence (looked up): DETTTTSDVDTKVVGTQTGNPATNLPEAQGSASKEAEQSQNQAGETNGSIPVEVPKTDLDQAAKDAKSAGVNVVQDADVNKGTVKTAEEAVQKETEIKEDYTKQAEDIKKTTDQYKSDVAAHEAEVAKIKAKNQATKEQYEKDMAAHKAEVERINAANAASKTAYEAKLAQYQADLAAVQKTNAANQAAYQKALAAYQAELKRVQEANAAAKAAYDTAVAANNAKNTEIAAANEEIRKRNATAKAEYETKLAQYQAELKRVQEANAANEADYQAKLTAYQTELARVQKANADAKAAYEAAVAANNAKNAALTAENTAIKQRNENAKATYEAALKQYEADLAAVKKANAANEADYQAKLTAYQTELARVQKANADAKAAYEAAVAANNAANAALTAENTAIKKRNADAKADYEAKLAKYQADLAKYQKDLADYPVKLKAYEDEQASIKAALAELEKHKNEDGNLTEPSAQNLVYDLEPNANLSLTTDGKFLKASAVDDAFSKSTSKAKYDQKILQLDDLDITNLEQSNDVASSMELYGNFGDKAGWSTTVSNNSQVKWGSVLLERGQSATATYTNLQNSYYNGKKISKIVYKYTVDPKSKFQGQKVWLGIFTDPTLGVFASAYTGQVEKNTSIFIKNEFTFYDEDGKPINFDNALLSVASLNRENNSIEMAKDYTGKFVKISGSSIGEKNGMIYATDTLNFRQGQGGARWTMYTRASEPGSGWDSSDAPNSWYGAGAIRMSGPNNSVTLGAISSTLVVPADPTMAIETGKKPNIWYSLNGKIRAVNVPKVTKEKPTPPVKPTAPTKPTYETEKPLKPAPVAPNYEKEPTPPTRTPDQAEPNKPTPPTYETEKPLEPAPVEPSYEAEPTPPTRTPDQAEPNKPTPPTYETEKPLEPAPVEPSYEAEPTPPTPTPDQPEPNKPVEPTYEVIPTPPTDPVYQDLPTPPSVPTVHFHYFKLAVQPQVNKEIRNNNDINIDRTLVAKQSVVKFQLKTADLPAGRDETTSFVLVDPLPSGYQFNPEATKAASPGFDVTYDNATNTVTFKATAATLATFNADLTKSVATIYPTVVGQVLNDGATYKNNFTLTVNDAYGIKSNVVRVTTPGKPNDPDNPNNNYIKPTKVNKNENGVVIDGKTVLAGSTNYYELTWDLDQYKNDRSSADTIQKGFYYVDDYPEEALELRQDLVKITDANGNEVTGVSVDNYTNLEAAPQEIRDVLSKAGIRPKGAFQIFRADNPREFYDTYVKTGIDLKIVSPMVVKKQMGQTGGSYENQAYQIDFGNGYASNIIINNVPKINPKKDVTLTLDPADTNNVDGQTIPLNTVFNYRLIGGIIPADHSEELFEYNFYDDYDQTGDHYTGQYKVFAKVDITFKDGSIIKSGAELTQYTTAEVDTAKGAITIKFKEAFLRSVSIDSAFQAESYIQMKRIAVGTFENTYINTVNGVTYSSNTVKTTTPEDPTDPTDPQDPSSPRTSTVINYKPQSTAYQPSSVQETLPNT
# [2] = target: T1, SAI/II antigen (SAI/II adhesion of S. …); test: ELISA, SAI/II coated, whole bacterial cells; integrated strain against plasmid strain (same polypeptide, different amount)
binder,measurement,setting,value
B1,fold reduction in binding activity against the corresponding plasmid system (L. paracasei pAF100),[1],≥ 8 fold
B2,fold lower binding level than L. paracasei pAF900,[2],< 16 fold
B3,fold reduction in binding activity against the corresponding plasmid system (L. paracasei pAF400),[1],4 fold
